Patent US20090162366A1

Legend:
[1] = target: M2FG peptide conjugated with BSA (influenza A virus, A/X-31 (H3N2)); assay: peptide-BSA ELISA (++ EC50<10^-9M; + 10^-9M<EC50<10^-8M); conditions: remark: other sources report otherwise
[2] = target: M2G peptide conjugated with BSA (influenza A virus, A/Puerto Rico/8/34 (H1N1)); assay: as above
[3] = target: M2-BSA conjugate (influenza A virus, A/Hong Kong/1/68 (H3N2)); assay: as above
[4] = target: M2 peptide (influenza A virus, A/Hong Kong/1/68 (H3N2)); assay: ELISA on peptide, Ab 10 µg/ml
NM16 (influenza A virus) = assay: ELISA on peptide, Ab 10 µg/ml
M15 (influenza A virus) = assay: ELISA on peptide, Ab 10 µg/ml
NM17 (influenza A virus) = assay: ELISA on peptide, Ab 10 µg/ml
M16 (influenza A virus) = assay: ELISA on peptide, Ab 10 µg/ml
NM15 (influenza A virus) = assay: ELISA on peptide, Ab 10 µg/ml

B1: C40G1 (antibody, V domains shown)
VH: QLQLQESGPGLVKPSETLSLTCTVSGGSISSSFYYCGWIRQPPGKGLEWIGSIYYRGSTYYNPSLKSRVTISVDTSKNQFSLKLSSVTAADTAVYYCARRVTMVRGVKGDYFDYWGQGTLVTVSS
VL: DIQMTQSPSSLSASVGDRVTITCRASQGISSWLAWYQQKPEKVPKSLIYAASSLQSGVPSRFSGSGSGTDFTLTISSLQPEDFATYYCQQYNYYPLTFGGGTKVEIKR
EC50 [1]: < 1 nM | EC50 [2]: < 1 nM | EC50 [3]: < 1 nM | ELISA(OD450) [4]: 2.56 OD450 | ELISA(OD450) (NM16 (influenza A virus)): 2.37 OD450 | ELISA(OD450) (M15 (influenza A virus)): 2.73 OD450 | ELISA(OD450) (NM17 (influenza A virus)): 2.41 OD450 | ELISA(OD450) (M16 (influenza A virus)): 2.64 OD450 | ELISA(OD450) (NM15 (influenza A virus)): 2.51 OD450
